Measured values as given in paper PMC3220508.

Target: HSPC038-EYFP fusion protein (human) (UniProt Q9Y5V0)
Experiment: FRET or BRET

Sequence of UniProt Q9Y5V0 (Q9Y5V0 whole entry, the tested form may be a part): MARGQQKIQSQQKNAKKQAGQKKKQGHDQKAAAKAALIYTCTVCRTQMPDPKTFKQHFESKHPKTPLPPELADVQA

normalized netFRET, 5 min hypotonic (isotonic = 1.00): 1.31
normalized netFRET, 15 min hypotonic (isotonic = 1.00): 1.44
normalized netFRET, 30 min hypotonic (isotonic = 1.00): 1.49
Substance: ICln-ECFP fusion protein (from UniProt P54105 1-237) (natural protein)
